Data on ten molecules can be found in publication PMC10372912, “Evidence for direct interaction between the oncogenic proteins E6 and E7 of high-risk human papillomavirus (HPV)” (The Journal of Biological Chemistry, 2023).

Experiment [1] has as its target fl-31E7 (human papillomavirus type 31) (UniProt P17387). Nature of the experiment: fluorescence polarisation; direct: 1.5-fold dilution series of MBP-E6 (or MBP) against fixed fl-E7 (350 nM HPV16, 200 nM HPV31) or 350 nM fl-16E7CR1/2; 20 mM Hepes pH 7.5, 200 mM NaCl, 1 mM TCEP, 0.005% Tween-20; one-site-specific binding fit.
Experiment [2] has as its target fl-16E7 (human papillomavirus type 16) (UniProt P03129). The experiment is described as above.
The target in experiment [3] is fl-16E7CR1/2 (aa 1–44) (human papillomavirus type 16) (UniProt P03129). The experiment is described as above.
The target in experiment [4] is fl-16E7 (human papillomavirus type 16) (UniProt P03129). The experiment in a line: AUC; sedimentation equilibrium, 12,000 or 18,000 rpm, 20 °C, 20 mM Hepes pH 7.5, 200 mM NaCl, 1 mM TCEP; 100 μM MBP-16E6_4C4S-LxxLL, 100 μM fl-16E7, 100 μM complex (1:1 molar mixture).
The target in experiment [5] is MBP-16E6_4C4S (human papillomavirus type 16). The experiment in a line: fluorescence polarisation; competition: unlabeled GGG-E7 dimer (two-fold dilutions, from 200 μM HPV16, from 150 μM HPV31) against the preformed complex of fl-E7 with 50 μM MBP-16E6_4C4S or 70 μM MBP-31E6_2C2S-LxxLL (60-80% saturation); FP assay buffer; one-site-specific binding fit.
The target is the same in experiment [6]. The experiment in a line: fluorescence polarisation; competition: nonlabeled 16E7CR1/2 against the fl-16E7/MBP-16E6_4C4S complex (Fig. S5).
For experiment [7] the target is unchanged. The experiment in a line: fluorescence polarisation; competition: nonlabeled 16E7CR1/2 (aa 1-44) against the complex of 200 μM MBP-16E6_4C4S and 350 nM fl-16E7CR1/2 (60% saturation).
Experiment [8] addresses fl-16E7 (human papillomavirus type 16) (UniProt P03129). The experiment in a line: AUC; sedimentation velocity, 40,000 rpm, 20 °C, 20 mM Hepes pH 7.5, 200 mM NaCl, 1 mM TCEP; fl-16E7 followed at 495 nm; 1:1 molar mixture and titration of MBP-16E6_4C4S-LxxLL (0-150 μM) against 100 μM fl-16E7.
In a further experiment the target is T1, EYFP-38E7 (human papillomavirus type 38, UniProt Q80908 1-100).
T1 construct: Cloned in pEYFP-C1; SG linker between EYFP and E7; also called EYFP-E7 (HPV38); HPV 38E7; source: C33A, transfected, in cells; not shown: EYFP, N-terminal, kept
T1 sequence: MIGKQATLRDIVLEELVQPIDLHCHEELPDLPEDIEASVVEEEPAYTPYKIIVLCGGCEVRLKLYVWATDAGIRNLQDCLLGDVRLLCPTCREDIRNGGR
Nature of the experiment: FRET or BRET; flow cytometry-based FRET (FACS-FRET) in C33A cells coexpressing mTagBFP2-E6 and EYFP-E7 of the same HPV type; at least 10% FRET and at least 500 FRET-positive cells count as an interaction; three biological replicates. The settings on record: partners not purified.

In a further experiment the target is T2, EYFP-16E7 (human papillomavirus type 16, UniProt P03129 1-98).
T2 construct: Cloned in pEYFP-C1; SG linker between EYFP and E7; also called EYFP-E7 (HPV16); HPV 16E7; source: C33A, transfected, in cells; not shown: EYFP, N-terminal, kept
T2 sequence (looked up): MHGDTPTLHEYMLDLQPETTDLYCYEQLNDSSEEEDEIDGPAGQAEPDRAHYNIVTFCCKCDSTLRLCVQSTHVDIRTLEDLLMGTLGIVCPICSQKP
Described as above. The settings on record: partners not purified.

For the next experiment, the target named is T3, EYFP-31E7 (human papillomavirus type 31, UniProt P17387 1-98).
T3 construct: Cloned in pEYFP-C1; SG linker between EYFP and E7; also called EYFP-E7 (HPV31); HPV 31E7; source: C33A, transfected, in cells; not shown: EYFP, N-terminal, kept
T3 sequence: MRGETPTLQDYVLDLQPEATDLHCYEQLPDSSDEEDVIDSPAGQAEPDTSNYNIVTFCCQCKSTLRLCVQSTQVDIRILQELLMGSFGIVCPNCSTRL
The experiment is described as above. The settings on record: partners not purified.

Experiment [9] concerns the target MBP-31E6_2C2S-LxxLL (human papillomavirus type 31 | not stated) (UniProt P17386). Nature of the experiment: fluorescence polarisation; competition: unlabeled GGG-E7 dimer (two-fold dilutions, from 200 μM HPV16, from 150 μM HPV31) against the preformed complex of fl-E7 with 50 μM MBP-16E6_4C4S or 70 μM MBP-31E6_2C2S-LxxLL (60-80% saturation); FP assay buffer; one-site-specific binding fit.

With “MBP-31E6_2C2S-LxxLL (from UniProt P17386 1-149)”, the dissociation constant Kd in [1] was 59.4 µM.
Take MBP-16E6_4C4S (natural protein): the Kd in experiment [2] came to 3 µM; in experiment [3], 101 µM.
As to “fl-16E7 (from UniProt P03129 1-98) (natural protein)”, the stoichiometry N in [4] was 2.
“unlabeled GGG-16E7 dimer (from UniProt P03129 1-98) (natural protein)” yielded a dissociation constant (Kd) in experiment [5] of 61.9 µM. In other words, the double-digit micromolar range.
Regarding “nonlabeled 16E7CR1/2 (aa 1–44) (from UniProt P03129 1-44) (peptide)”, the figures for the Kd in [6] and in experiment [7] were 288 µM and 128 µM, respectively.
MBP-16E6_4C4S-LxxLL: the stoichiometry N (E6 per E7 (2:2 complex)) in experiment [4] amounted to 1. Besides, in experiment [8], the percent of fl-16E7 in complex was determined as 89%. Further, the Kd in experiment [2] is 46.4 µM.

B1: mTagBFP2-38E6 (natural protein)
chain: MELPKPQTVQQLSDKLTVPVEDLLLPCRFCNSFLTYIELREFDYKNLQLIWTQEDFVFACCSSCAYASAQYECQQFYELTVFGREIEQVEQQTIGLIVIRCQYCLKCLDLIEKLDICCSHQAFHKVRGNWKGRCRHCKAIE
notes: Cloned in pmTagBFP-C1; SG linker between the fluorescent protein and the viral protein; also called mTagBFP2-E6 (HPV38); HPV 38E6; source: C33A, transfected, in cells; not shown: mTagBFP2, N-terminal, kept
As to B1, the “percent FRET” value with EYFP-38E7 was determined as 17.9%.

B2: mTagBFP2-16E6 (natural protein, human papillomavirus type 16, UniProt P03126 1-158, looked up)
chain: MHQKRTAMFQDPQERPRKLPQLCTELQTTIHDIILECVYCKQQLLRREVYDFAFRDLCIVYRDGNPYAVCDKCLKFYSKISEYRHYCYSLYGTTLEQQYNKPLCDLLIRCINCQKPLCPEEKQRHLDKKQRFHNIRGRWTGRCMSCCRSSRTRRETQL
notes: Cloned in pmTagBFP-C1; SG linker between the fluorescent protein and the viral protein; also called mTagBFP2-E6 (HPV16); HPV 16E6; source: C33A, transfected, in cells; not shown: mTagBFP2, N-terminal, kept
With B2, the “percent FRET” value with EYFP-16E7 is 13%.

B3: mTagBFP2-31E6 (natural protein)
chain: MFKNPAERPRKLHELSSALEIPYDELRLNCVYCKGQLTETEVLDFAFTDLTIVYRDDTPHGVCTKCLRFYSKVSEFRWYRYSVYGTTLEKLTNKGICDLLIRCITCQRPLCPEEKQRHLDKKKRFHNIGGRWTGRCIACWRRPRTETQV
notes: Cloned in pmTagBFP-C1; SG linker between the fluorescent protein and the viral protein; also called mTagBFP2-E6 (HPV31); HPV 31E6; source: C33A, transfected, in cells; not shown: mTagBFP2, N-terminal, kept
For the molecule B3, the “percent FRET” value with EYFP-31E7 is 16.3%.

B4: unlabeled GGG-31E7 dimer (natural protein)
chain: GGGMRGETPTLQDYVLDLQPEATDLHCYEQLPDSSDEEDVIDSPAGQAEPDTSNYNIVTFCCQCKSTLRLCVQSTQVDIRILQELLMGSFGIVCPNCSTRL
For B4, the Kd in experiment [9] was 54.2 µM.
